Measurements published in patent US20030170726A1, “Peptides sequences comprising one or several protein binding units of the ena/vasp family and the uses thereof” (priority 2000, published 2003).

How the values were obtained:
[1] = tested on: proteins of the Ena/VASP family; assay: Actin polymerisation on beads coated with proteins binding to the Ena/VASP family (beads of the invention), in lysed cell supernatants; assay type: biochemical, mammal, in particular human; settings: for inhibition of actin polymerisation detected using the beads of the invention: substance added to lysed mammal, in particular human, cell supernatants
Source text: a stage of placing the tested molecule in the presence of a reagent as defined above, in a medium containing actin and the elements necessary for actin polymerisation defined above, in particular in an extract of lysed cell supernatant,
followed by the optional detection of an inhibition or an activation of the process of actin polymerisation at the surface of said reagent, in comparison to a control (namely a medium as described above not containing the tested molecule, and in which is found said reagent), corresponding respectively to an effect of inhibition or stimulation of the tested molecule on the formation of the actin cytoskeleton by the mechanism involving the abovementioned protein or peptide bond or their derived sequence, with a protein of the Ena protein/VASP family.
The abovementioned medium in which the tested molecule is placed in the presence of said reagent, advantageously contains a compound labelled in particular by fluorescence, making it possible to detect actin polymerisation on said reagent. By way of illustration, the abovementioned labelled compound is a fluorescent derivative of actin, such as actin-rhodamine (commercially available), making it possible to visualize actin polymerisation by epifluorescence microscopy.
The GST-ActA-Pro protein was adsorbed onto 500 nm latex beads (Polyscience Inc, 400 Valley Road, Warrington Pa., USA) according to the manufacturers' instructions.

Arp2/3 complex = assay: Actin polymerisation on beads coated with WASP protein, in lysed cell supernatants; assay type: biochemical; settings: substance added to lysed mammal, in particular human
Source text: a stage of placing, in a medium containing actin and the elements necessary for actin polymerisation i.e. the Arp2/3 complex, in particular in an extract of lysed cell supernatant, the tested molecule with a reagent comprising WASP family proteins in the eucaryotic cells, in particular human or of other mammal cells, or insect cells, or from micro-organisms such as yeasts, or peptide fragments of these WASP family proteins, said peptide fragments having the property of the WASP family proteins to polymerise the actin by inducing cellular motility, or peptide sequences derived from WASP family proteins or the abovementioned peptide fragments, in particular by substitution of one or more amino acids of these fragments, said derived sequences having the abovementioned property of the WASP family proteins and said fragments of the latter, said abovementioned WASP family proteins, or peptide fragments or derived sequences, being bound or adsorbed to a support as defined above,
followed by the optional detection of an inhibition or an activation of the process of actin polymerisation at the surface of said reagent, in comparison to a control, corresponding respectively to an effect of inhibition or of stimulation of the tested molecule on the formation of the actin cytoskeleton by the mechanism involving the bonding of said WASP family proteins, or abovementioned peptide fragments or derived sequences, with the Arp2/3 complex.

[2] = tested on: mitochondria carrying zyxin at their surface; assay: Actin polymerisation in mitochondria carrying zyxin at their surface; assay type: cell-based
Source text: Furthermore, as a number of processes dependant on actin polymerisation require the recruitment and activation of the Arp2/3 complex, the Inventors have searched for the presence of this complex in the mitochondria carrying zyxin at their surface.

Row | Molecule | inhibition of actin polymerisation detected using the beads of the invention [1] | inhibition of actin polymerisation detected using beads coated with WASP protein (Arp2/3 complex) | inhibition of actin polymerisation in the mitochondria [2] | nucleation of actin by the coated beads ([1]; protein adsorbed onto 500 nm latex beads, added to extracts prepared from cells)
1 | ActA-Pro: ActA protein fragment of Listeria monocytogenes, 350 amino acids, positions 235 to 584 of SEQ ID NO 2 | inhibited | not inhibited | – | –
2 | N-WASP: N-WASP protein, approximately 45% sequence identity with human WASP protein; interacts with the Arp2/3 complex (protein, UniProt O00401 2-505, looked up) Actin nucleation-promoting …: SSVQQQPPPPRRVTNVGSLLLTPQENESLFTFLGKKCVTMSSAVVQLYAADRNCMWSKKCSGVACLVKDNPQRSYFLRIFDIKDGKLLWEQELYNNFVYNSPRGYFHTFAGDTCQVALNFANEEEAKKFRKAVTDLLGRRQRKSEKRRDPPNGPNLPMATVDIKNPEITTNRFYGPQVNNISHTKEKKKGKAKKKRLTKADIGTPSNFQHIGHVGWDPNTGFDLNNLDPELKNLFDMCGISEAQLKDRETSKVIYDFIEKTGGVEAVKNELRRQAPPPPPPSRGGPPPPPPPPHNSGPPPPPARGRGAPPPPPSRAPTAAPPPPPPSRPSVAVPPPPPNRMYPPPPPALPSSAPSGPPPPPPSVLGVGPVAPPPPPPPPPPPGPPPPPGLPSDGDHQVPTTAGNKAALLDQIREGAQLKKVEQNSRPVSCSGRDALLDQIRQGIQLKSVADGQESTPPTPAPTSGIVGALMEVMQKRSKAIHSSDEDEDEDDEEDFEDDDEWED | not inhibited | inhibited | – | –
3 | WASP: WASP protein, expressed from the WAS gene mutated in Wiskott-Aldrich Syndrome; interacts with the Arp2/3 complex (protein, UniProt P42768 2-502, looked up) Actin nucleation-promoting …: SGGPMGGRPGGRGAPAVQQNIPSTLLQDHENQRLFEMLGRKCLTLATAVVQLYLALPPGAEHWTKEHCGAVCFVKDNPQKSYFIRLYGLQAGRLLWEQELYSQLVYSTPTPFFHTFAGDDCQAGLNFADEDEAQAFRALVQEKIQKRNQRQSGDRRQLPPPPTPANEERRGGLPPLPLHPGGDQGGPPVGPLSLGLATVDIQNPDITSSRYRGLPAPGPSPADKKRSGKKKISKADIGAPSGFKHVSHVGWDPQNGFDVNNLDPDLRSLFSRAGISEAQLTDAETSKLIYDFIEDQGGLEAVRQEMRRQEPLPPPPPPSRGGNQLPRPPIVGGNKGRSGPLPPVPLGIAPPPPTPRGPPPPGRGGPPPPPPPATGRSGPLPPPPPGAGGPPMPPPPPPPPPPPSSGNGPAPPPLPPALVPAGGLAPGGGRGALLDQIRQGIQLNKTPGAPESSALQPPPQSSEGLVGALMHVMQKRSRAIHSSDEGEDQAGDEDEDDEWDD | not inhibited | inhibited | does not inhibit | –
4 | GST-ActA-Pro: recombinant protein composed of GST (237 residues) and proline rich and carboxy-terminal central parts of ActA (350 residues, SEQ ID NO 6) (protein) DFPPPPTDEELRLALPETPMLLGFNAPATSEPSSFEFPPPPTDEELRLALPETPMLLGFNAPATSEPSSFEFPPPPTEDELEIIRETASSLDSSFTRGDLASLRNAINRHSQNFSDFPPIPTEEELNGRGGRPTSEEFSSLNSGDFTDDENSETTEEEIDRLADLRDRGTGKHSRNAGFLPLNPFASSPVPSLSPKVSKISAPALISDITKKTPFKNPSQPLNVFNKKTTTKTVTKKPTPVKTAPKLAELPATKPQETVLRENKTPFIEKQAETNKQSINMPSLPVIQKEATESDKEEMKPQTEEKMVEESESANNANGKNRSAGIEEGKLIAKSAEDEKAKEEPGNHTT | – | – | – | capable of nucleating the actin
